Test results taken from patent US20250296963A1, “PEPTIDE HAVING ANTIMICROBIAL ACTIVITY” (priority 2022, published 2025).
Read-outs that look alike come from different tables or passages of the source. Where no end group is shown, it is not given here.

B1: SEQ ID No 1: Antimicrobial peptide from the N-terminal region of Theobroma cacao (CCN-51) vicilin protein, 15 kDa spot; natural, recombinant or synthetic (peptide)
chain: YGRKQYERDPRQQYEQCQRRCESEATEEREQEQCEQRCEREYKEQQRQQEEELQRQYQQCQGRCQEQQQGQREQQQCQRKCWEQYKEQERGEHENYHNHKKN
modifications: Theobroma cacao
notes: Antimicrobial peptide from the N-terminal region of Theobroma cacao (CCN-51) vicilin protein, 15 kDa spot; natural, recombinant or synthetic
B2: SEQ ID No 2: Cocoa vicilin-derived antimicrobial peptide of the invention, recombinant or synthetic, mass of 15.3 kDa (peptide)
chain: YGRKQYERDPRQQYEQCQRRCESEATEEREQEQCEQRCEREYKEQQRQQEEELQRQYQQCQGRCQEQQQGQREQQQCQRKCWEQYKEQERGEHENYHNHK
modifications: peptide according to an embodiment of the invention
notes: Cocoa vicilin-derived antimicrobial peptide of the invention, recombinant or synthetic, mass of 15.3 kDa

Experiments:
Type in all cases: cell-based
Pantoea agglomerans = tested on: Pantoea agglomerans
Protocol: (§1) The antimicrobial potential of the peptides described herein was compared with the activity of two other AMPs, TcAMP1 and TcAMP2 as discussed in WO1998027805, and antibiotics or fungicides. Comparative MIC assays were carried out against several bacterial and fungal species (Table 1).
(§2) Peptides according to SEQ ID N° 1, SEQ ID N° 2, SEQ ID N° 4, SEQ ID N° 6, and SEQ ID N° 7 were serially diluted in order to create a concentration sequence ranging from 0.39 μg/ml to […].
(§3) Pantoea, Staphylococcus, and Listeria were cultured in Trypticase Soy Broth (TSY) medium consisting of 1.7% casein peptone, 0.3% soy peptone, 0.25% glucose, 0.5% NaCl, 0.25% K2HPO4 and optionally 1.5% agar. Candida cells were cultured in Yeast Extract Peptone Dextrose (YPD) broth medium consisting of 1% yeast extract, 2% peptone, 2% glucose, and optionally 2% agar. Ceratocystis, Botrytis, Leptosphaeria, Mycosphaerella, Sclerotinia, and Verticillium were cultured in Potato Dextrose Agar (PDA) medium consisting of 2.4% Difco pre-mix broth and optionally 1.5% agar.
(§4) For the MIC assay bacteria and fungi were grown on agar plates with their respective media. Pre-cultures were prepared by inoculating either single bacterial colonies or small pieces of fungi in 5 ml of the respective liquid medium. The optical density (OD) at 600 nm was measured after one to five days and adjusted to an OD600 of 1. This cell suspension was used to prepare 1:500 dilutions, corresponding to approximately 2×10^6 microbial cells per ml.
(§5) To evaluate MICs, 96-well plates were prepared with the test antimicrobial peptides. Each well contained 100 μl microbial cell culture, 90 μl culture medium, and 10 μl peptide or control at the corresponding dilution. The plates were incubated overnight (ON) at the optimal growth temperature for each tested organism (Table 1). Results were visually evaluated and MICs determined based on growth or no-growth.
(§6) MIC assays were conducted in at least two independent replicates and with different peptide starting concentrations.

E. coli = assay: MIC assay, E. coli
Protocol: as §1, §2, §4, §5, §6

[1] = tested on: Staphylococcus aureus MRSA; assay: microbe, parasite or virus in culture
Protocol: as §1, §2, §3, §4, §5, §6

Listeria monocytogenes [2] = assay: microbe, parasite or virus in culture
Protocol: as §1, §2, §3, §4, §5, §6

Ceratosystis paradoxa = assay: organism not typed
Protocol: as §1, §2, §3, §4, §5, §6

Verticillium dahliae = assay: microbe, parasite or virus in culture
Protocol: as §1, §2, §3, §4, §5, §6

Botrytis cinerea = assay: microbe, parasite or virus in culture
Protocol: as §1, §2, §3, §4, §5, §6

Leptosphaeria maculans = assay: microbe, parasite or virus in culture
Protocol: as §1, §2, §3, §4, §5, §6

Sclerotinia sclerotiorum = assay: microbe, parasite or virus in culture
Protocol: as §1, §2, §3, §4, §5, §6

Candida albicans = assay: microbe, parasite or virus in culture
Protocol: as §1, §2, §3, §4, §5, §6

Mycosphaerella pinodes = assay: microbe, parasite or virus in culture
Protocol: as §1, §2, §3, §4, §5, §6

Erwinia amylovora = assay: MIC assay in soil slurry
Protocol: In vitro experiments were conducted to test the behavior of the peptides as disclosed herein in soil slurry, against Erwinia amylovora. Soil slurry was generated by mixing 5 g soil in 20 ml water. This mixture was incubated for 1 h at an overhead shaker. The solid parts were removed by centrifugation and the obtained supernatant, referred to as soil slurry, was used for the MIC assay. Equal volumes of the peptide according to SEQ ID N°1 (8 mg/ml) and soil slurry were mixed and incubated overnight at 28° C. The mixture was used for MIC against Erwinia amylovora.

C. albicans = assay: Peptide stability in bodily fluids (sheep blood, urine), MIC against C. albicans; settings: Candida albicans
Protocol: In vitro experiments were conducted to test the behavior of the peptides as disclosed herein in blood, against C. albicans. C. albicans isolates from human blood were used (DSMZ 6569). The peptide according to the SEQ ID N° 1 was adjusted to a concentration of 1 mg/ml and mixed with sheep blood in equal parts. This mixture was incubated overnight at 30° C. To remove solid parts of the blood, the mixture was centrifuged and the obtained plasma supernatant was used for MICs.
In vitro experiments were conducted to test the behavior of the peptides as disclosed herein in urine, against C. albicans. The peptide according to the SEQ ID N° 1 was adjusted to a concentration of 1 mg/ml and mixed with synthetic urine or human urine in equal parts. These mixtures were incubated overnight at 30° C. To remove solid parts of the urine, the mixture was centrifuged and the obtained supernatant was used for MICs.

Listeria monocytogenes [3] = assay: Cow milk assay, MIC against Listeria monocytogenes
Protocol: In vitro experiments were conducted to test the behavior of the peptides as disclosed herein in 3.5% fat cow milk, against Listeria monocytogenes. The peptide according to the SEQ ID N° 1 was adjusted to a concentration of 1 mg/ml and mixed with cow milk in equal parts. This mixture was incubated overnight at 37° C. To remove solid parts of the milk, the mixture was centrifuged and the obtained supernatant was used for MICs.

[4] = tested on: several bacterial and fungal species; assay: Comparative MIC assays, all tested organisms; settings: bacterial species of Table 3, all tested species
Protocol: as §1, §2, §3
For the MIC assay bacteria and fungi were grown on agar plates with their respective media. […] The optical density (OD) at 600 nm was measured after one to five days and adjusted to an OD600 of 1. […]
To evaluate MICs, 96-well plates were prepared with the test antimicrobial peptides. […] Results were visually evaluated and MICs determined based on growth or no-growth. […]

[5] = Pantoea agglomerans JUB-CC-3253, TSY, 37° C., overnight
[6] = Staphylococcus aureus MRSA DSM 11729, TSY, 37° C., overnight
[7] = Listeria monocytogenes DSM 102976, TSY, 37° C., overnight
[8] = Ceratosystis paradoxa DSMZ 63054, PDA, 18° C., overnight
[9] = Verticillium dahliae SF 76, PDA, 28° C., overnight
[10] = Botrytis cinerea DSMZ 877, PDA, 24° C., overnight
[11] = Leptosphaeria maculans SF 70, PDA, 18° C., overnight
[12] = Sclerotinia sclerotiorum SF 79, PDA, 18° C., overnight
[13] = Candida albicans DSM 1386, YPD, 30° C., overnight
[14] = Mycosphaerella pinodes DSMZ 62763, PDA, 30° C., overnight

Molecule	Minimal inhibitory concentration (Pantoea agglomerans; [5]) [µg/mL]	Minimal inhibitory concentration (E. coli) [µg/mL]	Minimal inhibitory concentration [1, 6] [µg/mL]	Minimal inhibitory concentration (Listeria monocytogenes [2]; [7]) [µg/mL]	Minimal inhibitory concentration (Ceratosystis paradoxa) [µg/mL]	Minimal inhibitory concentration (Pantoea agglomerans) [µg/mL]	Minimal inhibitory concentration (Verticillium dahliae) [µg/mL]	Minimal inhibitory concentration (Botrytis cinerea) [µg/mL]	Minimal inhibitory concentration (Leptosphaeria maculans) [µg/mL]	Minimal inhibitory concentration [1] [µg/mL]	Minimal inhibitory concentration (Sclerotinia sclerotiorum) [µg/mL]	Minimal inhibitory concentration (Candida albicans) [µg/mL]	Minimal inhibitory concentration (Mycosphaerella pinodes) [µg/mL]	Minimal inhibitory concentration (Listeria monocytogenes [2]) [µg/mL]	Minimal inhibitory concentration (Ceratosystis paradoxa; [8]) [µg/mL]	Minimal inhibitory concentration (Verticillium dahliae; [9]) [µg/mL]	Minimal inhibitory concentration (Botrytis cinerea; [10]) [µg/mL]	Minimal inhibitory concentration (Leptosphaeria maculans; [11]) [µg/mL]	Minimal inhibitory concentration (Sclerotinia sclerotiorum; [12]) [µg/mL]	Minimal inhibitory concentration (Candida albicans; [13]) [µg/mL]	further results
Gentamycin	1.56	1	0.8	0.4																	
LQRQYQQCQGRCQEQQQGQREQQQCQRKCWEQYKEQERGEHENYHNHKKNRSEEEEGQQR (cysteines drawn unpaired) [SEQ ID No 7]					4.7	9.45	12.7	12.75	9.4	13.6	23.5	12.75	10.68	13.6							
YERDPRQQYEQCQRRCESEATEEREQEQCEQRCEREYKEQQRQQEEE (cysteines drawn unpaired) [SEQ ID No 6]					4.8	7.9	14.5	14.5	37.9	13	27.2	13.1	13.12	3.25							
B1	1.1	3.1	3.1	3.1											5	1.6	6.25	3.75	10.25	0.4	concentration inhibiting bacteria growth (MIC) (Erwinia amylovora; control conditions): 15 µg/mL; concentration inhibiting bacteria growth (MIC) (Erwinia amylovora; peptide (8 mg/ml) mixed with equal volume of soil slurry, overnight 28° C.): 25 µg/mL; Minimal inhibitory concentration (C. albicans; control, no bodily fluid (and reference drug)): 0.4 µg/mL; Minimal inhibitory concentration (C. albicans; peptide 1 mg/ml mixed with human urine in equal parts, overnight 30° C., supernatant): 5 µg/mL; Minimal inhibitory concentration (C. albicans; peptide 1 mg/ml mixed with sheep blood in equal parts, overnight 30° C., plasma supernatant): 25 µg/mL; Minimal inhibitory concentration (C. albicans; peptide 1 mg/ml mixed with synthetic urine in equal parts, overnight 30° C., supernatant): 2 µg/mL; Minimal inhibitory concentration (Listeria monocytogenes [3]; control, milk-free (and reference drug)): 3.1 µg/mL; Minimal inhibitory concentration (Listeria monocytogenes [3]; control, milk-free (and reference drug), listed as SEQ ID N° 1): 3.2 µg/mL; Minimal inhibitory concentration (Listeria monocytogenes [3]; peptide 1 mg/ml mixed with 3.5% fat cow milk in equal parts, overnight 37° C., supernatant): 80 µg/mL; Minimal inhibitory concentration (Mycosphaerella pinodes; [14]): 1.9 µg/mL; efficiency compared with the prior art peptides [4]: more efficient than the prior art peptides
B2	1.9	6.2	7.1	7.1											6.25	3.1	6.25	6.25	19.3	3.1	Minimal inhibitory concentration (Mycosphaerella pinodes; [14]): 4.5 µg/mL; efficiency compared with the prior art peptides [4]: more efficient than the prior art peptides
